From patent US20250011440A1

Assays:
[1] = biological target: human FcRn-His-GST (FcRn fused to a His-tag and glutathione S transferase) (human) (UniProt P55899); assay: AlphaScreen competition, pH 6.0 (FIG. 13)
[2] = biological target: human FcRn-His-GST (FcRn fused to a His-tag and glutathione S transferase) (human) (UniProt P55899); assay: AlphaScreen competition vs wild-type Fc, pH 6.0 (FIG. 13)

percent of the binding affinity of the wild type [1]	fold increase in FcRn affinity (vs wild type) [2]	Substance
1.1%	–	IgG1 Fc variant ^254N (Asn inserted after position 254; taken as in the anti-HER2 antibody trastuzumab)
–	2 fold	IgG1 Fc variant N286# (deletion of N286; taken as in the anti-HER2 antibody trastuzumab)
